# Data taken from patent publication US20090089894A1 (IOWA STATE UNIVERSITY RESEARCH FOUNDATION, published 2009).
# B1: pLexA-53, murine p53 (72-390 aa) in the pLexA vector (other)
# chain: PVTETPGPVAPAPATPWPLSSFVPSQKTYQGNYGFHLGFLQSGTAKSVMCTYSPPLNKLFCQLAKTCPVQLWVSATPPAGSRVRAMAIYKKSQHMTEVVRRCPHHERCSDGDGLAPPQHLIRVEGNLYPEYLEDRQTFRHSVVVPYEPPEAGSEYTTIHYKYMCNSSCMGGMNRRPILTIITLEDSSGNLLGRDSFEVRVCACPGRDRRTEEENFRKKEVLCPELPPGSAKRALPTCTSASPPQKKKPLDGEYFTLKIRGRKRFEMFRELNEALELKDAHATEESGDSRAHSSYLKTKKGQSTSRHKKTMVKKVGPDSD
# notes: range 72-390; positive control bait
# Target: T1, pB42AD-T, SV40 large T-antigen (87-708 aa) in the pB42AD vector (SV40, UniProt P03070 87-708)
# T1 construct: range 87-708; positive control prey
# T1 sequence (P03070 87-708 limits assumed): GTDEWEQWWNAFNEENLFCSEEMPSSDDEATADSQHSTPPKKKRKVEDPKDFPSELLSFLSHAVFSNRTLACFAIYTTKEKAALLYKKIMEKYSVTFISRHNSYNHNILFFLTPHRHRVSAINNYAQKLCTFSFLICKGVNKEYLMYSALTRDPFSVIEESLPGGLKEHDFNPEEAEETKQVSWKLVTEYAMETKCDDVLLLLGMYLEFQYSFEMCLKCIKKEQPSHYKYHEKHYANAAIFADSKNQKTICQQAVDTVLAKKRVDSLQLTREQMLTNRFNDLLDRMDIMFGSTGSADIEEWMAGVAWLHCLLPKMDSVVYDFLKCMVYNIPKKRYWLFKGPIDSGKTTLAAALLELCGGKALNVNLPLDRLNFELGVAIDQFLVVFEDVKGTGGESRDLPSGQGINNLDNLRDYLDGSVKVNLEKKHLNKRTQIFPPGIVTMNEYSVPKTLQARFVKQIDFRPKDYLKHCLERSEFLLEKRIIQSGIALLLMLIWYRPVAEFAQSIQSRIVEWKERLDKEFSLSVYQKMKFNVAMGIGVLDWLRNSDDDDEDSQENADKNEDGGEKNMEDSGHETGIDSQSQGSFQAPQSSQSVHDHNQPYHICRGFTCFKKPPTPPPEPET
# Experiment: yeast two-hybrid positive control (FIG. 2)
binder,measurement,value
B1,binding result,binds
